This note sets out measurements from patent US20260049134A1 (UNIVERSITY OF FLORIDA RESEARCH FOUNDATION, published 2026).

One assay has as its target T1, PTP4A3 (PRL-3).
T1 construct: coated protein in the ELISA; also called His-PTP4A3 (R&D Systems)
Kind of assay: ELISA on coated His-PTP4A3, 150 ng IgG1; None 0.085. Here is the method:
(§1) Recombinant purified ECDs (50-150 ng) of each putative target protein were coated, incubated with 150 ng of the indicated primary antibody, and binding was detected using a peroxidase-conjugated anti-human Fab secondary antibody. Heatmap represents averages of technical triplicates. (8B) Target validation via siRNA knockdown. H929 cells were transfected with siRNA pools targeting the putative antibody targets ICAM1, CADM1, and PTPRG. Cells were then subjected to cognate IgG binding analysis via flow cytometry. (NT, non-targeting siRNA).
(§2) ELISA ELISA was conducted as described previously. Briefly, 50-150 ng of antigen was coated overnight in half-area 96-well plates at 4° C., blocked with 3% BSA at 37° C. for 1 h, and 150 ng of chimeric rabbit/human IgG1 was added, incubating for 2 h at 37° C. […] After incubating at 37° C. for 15 min-1 h (depending on intensity of controls), data were acquired using a SpectraMax M5 plate reader (Molecular Devices).

For another assay, the target named is T2, IGSF11 (VSIG3).
T2 construct: coated protein in the ELISA; also called IGSF11-Fc (R&D Systems)
T2 chain: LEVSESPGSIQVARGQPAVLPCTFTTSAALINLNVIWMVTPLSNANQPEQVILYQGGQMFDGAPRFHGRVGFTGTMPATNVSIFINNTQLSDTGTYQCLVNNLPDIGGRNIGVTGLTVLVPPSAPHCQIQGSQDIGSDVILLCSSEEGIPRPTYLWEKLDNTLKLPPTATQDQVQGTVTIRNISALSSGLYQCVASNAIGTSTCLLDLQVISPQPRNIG
The assay can be described thus: ELISA on coated IGSF11-Fc, 150 ng IgG1; None 0.090. The procedure:
as §1, §2

A further assay concerns the target T3, ANXA1.
T3 construct: coated protein in the ELISA; also called ANXA1-His (R&D Systems)
T3 chain: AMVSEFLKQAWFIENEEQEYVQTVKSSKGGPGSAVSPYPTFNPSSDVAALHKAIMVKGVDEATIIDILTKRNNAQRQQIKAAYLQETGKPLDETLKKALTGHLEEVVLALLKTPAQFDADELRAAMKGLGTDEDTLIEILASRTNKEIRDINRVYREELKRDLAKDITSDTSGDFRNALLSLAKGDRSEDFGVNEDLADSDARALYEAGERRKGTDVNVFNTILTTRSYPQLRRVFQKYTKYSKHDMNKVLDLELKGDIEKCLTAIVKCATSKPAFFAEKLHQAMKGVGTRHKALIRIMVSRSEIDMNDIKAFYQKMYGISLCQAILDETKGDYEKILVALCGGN
Kind of assay: ELISA on coated ANXA1-His. Here is the method: as §1, §2

Another assay addresses T4, IL13RA1.
T4 construct: coated protein in the ELISA; also called IL13RA1-Fc-His (R&D Systems)
T4 chain: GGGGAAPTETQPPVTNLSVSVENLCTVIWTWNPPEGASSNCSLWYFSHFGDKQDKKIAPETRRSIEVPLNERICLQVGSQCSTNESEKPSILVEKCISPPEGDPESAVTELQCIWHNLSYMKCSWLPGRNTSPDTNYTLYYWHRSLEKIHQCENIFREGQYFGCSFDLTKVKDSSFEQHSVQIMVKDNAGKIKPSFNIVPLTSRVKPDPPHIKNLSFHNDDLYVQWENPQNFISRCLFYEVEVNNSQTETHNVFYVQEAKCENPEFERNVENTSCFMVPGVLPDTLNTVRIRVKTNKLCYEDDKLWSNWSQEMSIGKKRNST
Kind of assay: ELISA on coated IL13RA1-Fc-His, 150 ng IgG1; None 0.094. The procedure: as §1, §2

In another assay the target is T5, DCC.
T5 construct: coated protein in the ELISA; also called DCC-His (R&D Systems)
T5 chain: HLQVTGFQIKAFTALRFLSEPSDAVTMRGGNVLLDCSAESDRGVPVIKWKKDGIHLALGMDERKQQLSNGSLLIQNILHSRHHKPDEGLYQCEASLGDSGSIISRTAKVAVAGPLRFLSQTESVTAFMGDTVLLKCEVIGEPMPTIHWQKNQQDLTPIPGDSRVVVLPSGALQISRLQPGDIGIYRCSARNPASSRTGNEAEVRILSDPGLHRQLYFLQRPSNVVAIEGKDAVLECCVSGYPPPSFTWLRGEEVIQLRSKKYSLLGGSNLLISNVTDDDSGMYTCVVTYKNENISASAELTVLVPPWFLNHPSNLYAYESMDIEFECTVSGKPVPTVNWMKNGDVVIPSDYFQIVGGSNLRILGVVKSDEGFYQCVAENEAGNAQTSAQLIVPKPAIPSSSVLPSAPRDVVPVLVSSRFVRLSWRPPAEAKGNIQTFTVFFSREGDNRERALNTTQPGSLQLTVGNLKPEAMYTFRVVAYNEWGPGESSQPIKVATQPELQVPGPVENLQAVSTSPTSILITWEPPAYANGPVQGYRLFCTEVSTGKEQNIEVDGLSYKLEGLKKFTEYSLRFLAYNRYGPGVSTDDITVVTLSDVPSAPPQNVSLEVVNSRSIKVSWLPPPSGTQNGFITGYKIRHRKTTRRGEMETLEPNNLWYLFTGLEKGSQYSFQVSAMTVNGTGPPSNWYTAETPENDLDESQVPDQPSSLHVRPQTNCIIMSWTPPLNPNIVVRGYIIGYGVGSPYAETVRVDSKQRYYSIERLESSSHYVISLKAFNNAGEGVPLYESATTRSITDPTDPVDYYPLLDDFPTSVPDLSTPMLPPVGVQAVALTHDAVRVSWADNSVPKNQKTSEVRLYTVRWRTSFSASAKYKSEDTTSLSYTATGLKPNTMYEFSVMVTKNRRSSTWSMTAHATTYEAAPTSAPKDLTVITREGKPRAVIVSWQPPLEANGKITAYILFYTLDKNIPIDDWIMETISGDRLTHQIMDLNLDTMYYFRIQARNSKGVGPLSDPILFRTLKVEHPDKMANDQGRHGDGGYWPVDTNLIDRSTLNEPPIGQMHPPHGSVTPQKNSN
The assay can be described thus: ELISA on coated DCC-His. The procedure:
as §1, §2

Positions count from the first letter of the chain named. Names and notes keep the numbering of the source.

T1 sequence (chain, as listed by the source limits assumed): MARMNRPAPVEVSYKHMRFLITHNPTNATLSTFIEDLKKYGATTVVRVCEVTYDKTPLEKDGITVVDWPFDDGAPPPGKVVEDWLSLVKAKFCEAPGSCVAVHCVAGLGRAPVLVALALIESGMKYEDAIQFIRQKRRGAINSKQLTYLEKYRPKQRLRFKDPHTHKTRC

B1: HW-16 chimeric rabbit-human IgG1 LA/LA/PG (antibody, V domains shown)
VH: QSLEESGGRLVTPGTPLTLTCTASGFSLSSYAMSWVRQAPGKGLEWIGTMPTGGGTYYASWAKGRFTISKTSTTVDLQITSPTTEDTATYFCAKHWNIWGPGTLVTISS
VL: DIVLTQTPSSTSTAVGDTVTINCRASQSIGRNLAWFQQKPGQPPKLLIYRASNLASGVPSRFKGSGSRTQFTLTISGVQREDAATYYCLGSYSSSDTAFGGGTELEILR
notes: Fc-silenced (L234A/L235A/P329G) IgG1, kappa; Alexa Fluor 647-labeled in single-step flow cytometry; Cluster C-45
As for B1, the “ELISA Absorbance (405 nm-570 nm)” value is 0.105 with PTP4A3 (PRL-3), 0.087 in the assay with IGSF11 (VSIG3) and 0.163 with IL13RA1. For the same molecule, the binding result in the assay with ANXA1 is on record as “no binding (tested: 150 ng IgG1 per well)”.

B2: HW-42 chimeric rabbit-human IgG1 LA/LA/PG (antibody, V domains shown)
VH: QSVKESEGGLFKPADTLTLTCTVSGFSLSSNEISWVRQAPGEGLEYIGIIDTGGRAYYAVWARSRSTITRNTNLNTVTLKMTSLTAADTATYFCARGGVDTEWYAFSSWGPGTLVTVPS
VL: SFVLTQPASVQVNLGQTVSLTCTADTLSRRYASWYQQKPGQAPVLLIFRDTSRPSGVPDRFSGSSSGDTATLTISGAQAGDEADYYCATSDGSGSNYQYVFGGGTQLTVTG
notes: Fc-silenced (L234A/L235A/P329G) IgG1, lambda; Alexa Fluor 647-labeled in single-step flow cytometry; Cluster C-1
Consider B2, for which the binding result with DCC and with ANXA1 was “no binding (tested: 150 ng IgG1 per well)” throughout. In addition, the “ELISA Absorbance (405 nm-570 nm)” value with PTP4A3 (PRL-3) was 0.096; in the assay with IGSF11 (VSIG3), 0.088; with IL13RA1 it was 0.102.

B3: HW-28 chimeric rabbit-human IgG1 LA/LA/PG (antibody, V domains shown)
VH: QKQLVESGGRLVTPGTPLTLTCTASGFSLSSNAMSWVRQAPGEGLQWIGTISSGGSTYYASWAKGRFTISKTSTTVTLKMTSLTTEDTATYFCARGADLHRLWGPGTLVTVSS
VL: B2 VL with A24G, D25K, T26P, R30S, Y31F, L46V, F48Y, D68N, N96S
notes: Fc-silenced (L234A/L235A/P329G) IgG1, lambda; Alexa Fluor 647-labeled in single-step flow cytometry; Cluster C-45
With B3, the “ELISA Absorbance (405 nm-570 nm)” value in the assay with IGSF11 (VSIG3) turned out to be 0.11.

B4: HW-17 chimeric rabbit-human IgG1 LA/LA/PG (antibody, V domains shown)
VH: QSLGESRGRLVTPDETLTLTCTVSGIDLSSNAMSWVRQAPGEGLEWIGTINTGGRAYYASWAKGRFTISRTSTTVDLKMTSLTTEDTATYFCARERYSDGRAYDIWGPGTLVTISS
VL: B2 VL with F48Y, R49T, T51S, S52N, V57I, D68N, S90D, N96I
notes: as for B2
Turning to B4, the binding result with DCC and with ANXA1 was “no binding (tested: 150 ng IgG1 per well)” throughout. The “ELISA Absorbance (405 nm-570 nm)” value in the assay with PTP4A3 (PRL-3) turned out to be 0.072; with IGSF11 (VSIG3), 0.094; with IL13RA1 it was 0.073.

B5: HW-1 chimeric rabbit-human IgG1 LA/LA/PG (antibody, V domains shown)
VH: QSLEESGGGLFKPTDTLTLTCTASGFSLGSSYAISWVRQAPGKELEWIGTIDSGRAYYARWAKSRSTITRNTNENTVTLKMTSLTAADTATYFCARDLIPTYSQDIWGPGTLVTISS
VL: B2 VL with F48Y, D68N, S95N, N96S, G111S
notes: Fc-silenced (L234A/L235A/P329G) IgG1, lambda; Alexa Fluor 647-labeled in single-step flow cytometry; Prototype of cluster C-1
Turning to B5, the binding result with DCC and in the assay with ANXA1 was “no binding (tested: 150 ng IgG1 per well)” each time. Moreover, the “ELISA Absorbance (405 nm-570 nm)” value was 0.081 in the assay with PTP4A3 (PRL-3), 0.074 in the assay with IGSF11 (VSIG3) and 0.08 with IL13RA1.

B6: HW-70 chimeric rabbit-human IgG1 LA/LA/PG (antibody, V domains shown)
VH: QSLEESGGRLVTPGTPLTLTCTVSGFSLSSNAMSWVRQAPGKGLEWIGTIDGYGYTYYASWAKGRFTVSKTSTTVDLKITSPTTEDTATYFCAREIYLGSNFWGPGTLVTISS
VL: B2 VL with F48Y, D68N, S90A, N96S, Y99F
notes: as for B2
As for B6, the binding result with DCC and in the assay with ANXA1 was “no binding (tested: 150 ng IgG1 per well)” in each case. The figures for the “ELISA Absorbance (405 nm-570 nm)” value in the assay with PTP4A3 (PRL-3), in the assay with IGSF11 (VSIG3) and with IL13RA1 were 0.092, 0.085 and 0.085, respectively.

B7: HW-25 chimeric rabbit-human IgG1 LA/LA/PG (antibody, V domains shown)
VH: QSLEESGGRLVTPGTPLTLTCTVSGFSLSSYAMGWVRQAPGKGLEWIGIIDSRGSTYYATWAKGRFTISKTSTTVDLKITSPTTEDTATYFCAREDSYYYDSFNLWGPGTLVTVSS
VL: B2 VL with F48Y, D68N, N96S, Y99C
notes: as for B2
For B7, the binding result with DCC and in the assay with ANXA1 was “no binding (tested: 150 ng IgG1 per well)” throughout. The “ELISA Absorbance (405 nm-570 nm)” value with PTP4A3 (PRL-3) was 0.079; with IGSF11 (VSIG3) it was 0.07; with IL13RA1, 0.074.

B8: TH9-0022 (antibody, human IgG1, kappa, L234A L235A, V domains shown)
VH: QSLEESGGRLVTPGTPLTLTCTVSGFSLSSYAMNWVRQAPGKGLEWIGIINSYGSTYYASWAKGRFTISKTSTTVDLKITSPTTEDTATYFCARVTYDSYGYGYAPYGMDLWGPGTLVTVSS
VL: LVMTQTPSSTSNAVGGTVTIKCQASQSIGNVLAWYQQKPGQPPKLLIYAASTLASGVPSRVGGSRSGTEYTLTISGVQREDAATYYCLGSDSDSDIAFGGGTELEILR
notes: also called TH9-022; negative control
With B8, the binding result with DCC and with ANXA1 was “no binding (tested: 150 ng IgG1 per well)” throughout. Also, the “ELISA Absorbance (405 nm-570 nm)” value was found to be 0.092 with PTP4A3 (PRL-3), 0.08 with IGSF11 (VSIG3) and 0.08 with IL13RA1.

B9: HW-8 chimeric rabbit-human IgG1 LA/LA/PG (antibody, V domains shown)
VH: QSLEESGGRLVTPGTPLTLTCTVSGFSLSSYAMSWVRQAPGKGLEWIGAISTGGSTTYASWAKGRFTISKTSSTTVDLKMTSLTTEDTATYFCVRHFRLWGPGTLVTISS
VL: QVLTQTPSSVSAAVGGTVTIKCQASQSIGSALAWFQQKPGQRPKLLIYRASNLASGVPSRFKGSGSGTEFALTISGVQREDAATYYCLGGAAAVWAFGAGTNVEIKR
notes: as for B1
For B9, the binding result with DCC and with ANXA1 was “no binding (tested: 150 ng IgG1 per well)” in each case. In addition, the “ELISA Absorbance (405 nm-570 nm)” value was 0.075 in the assay with PTP4A3 (PRL-3), 0.069 with IGSF11 (VSIG3) and 0.077 with IL13RA1.
